US20020018783A1

Molecular target: endogenous CD28 (human, on Jurkat cells and primary T lymphocytes) (human) (UniProt P10747)
Assay: cell-based or functional assay

% of dead cells, 3G6-CD28 transduced T lymphocytes, OKT3/28.2, day 3 (trypan blue): 10%
% of dead cells, NTP transduced T lymphocytes, OKT3/28.2, day 6 (trypan blue): 15%
IL-2 secretion with PMA and ionomycin (ELISA, 24 hours), Jurkat-NTP: 960 pg/mL
IL-2 secretion with PMA and ionomycin (ELISA, 24 hours), both cell populations: 3 fold
Substance: anti-CD28 Mab 28.2 (antibody)
